# According to publication PMC11853200:
# Assays:
# [1] = target: MotS_(68–242)(E75A) (Bacillus subtilis); experiment: SEC; Superdex 75 10/300 GL, 20 mM Tris-HCl pH 8.0 with 300 mM NaCl, 0.6 mL/min; size markers ovalbumin (43 kDa) and IgG (158 kDa)
# [2] = target: Bs-MotS_(68–242), periplasmic fragment of the stator B-subunit MotS from Bacillus subtilis (Bacillus subtilis); experiment: SEC; Superdex 75 10/300 GL, 20 mM Tris-HCl pH 8.0 with 300 mM KCl (no Na+), 0.6 mL/min; size markers ovalbumin (43 kDa) and IgG (158 kDa)
# [3] = target: Bs-MotS_(68–242), periplasmic fragment of the stator B-subunit MotS from Bacillus subtilis (Bacillus subtilis); experiment: crystal structure; protein purified in 300 mM KCl; crystals from 40% PEG-300, 0.1 M Na2HPO4/citric acid pH 4.2, 293 K; soaked in 40 mM NaCl/300 mM KCl; 1.90 Å
# [4] = target: Bs-MotS_(68–242), periplasmic fragment of the stator B-subunit MotS from Bacillus subtilis (Bacillus subtilis); experiment: SEC; Superdex 75 10/300 GL, 20 mM Tris-HCl pH 8.0 with 300 mM NaCl, 0.6 mL/min; size markers ovalbumin (43 kDa) and IgG (158 kDa)
# [5] = target: Bs-MotS_(68–242), periplasmic fragment of the stator B-subunit MotS from Bacillus subtilis (Bacillus subtilis); experiment: crystal structure; protein purified in 300 mM NaCl; crystals from 20% PEG-8000, 0.1 M HEPES-NaOH pH 7.5, 293 K; soaked in 300 mM NaCl; 1.89 Å
# [6] = target: Bs-MotS_(68–242), periplasmic fragment of the stator B-subunit MotS from Bacillus subtilis (Bacillus subtilis); experiment: crystal structure; protein purified in 150 mM NaCl; crystals from 1.26 M ammonium sulfate, 0.1 M HEPES-NaOH pH 7.5, 293 K; solution containing 92 mM NaCl; 1.89 Å
# [7] = target: MotS_(68–242)(D70A) (Bacillus subtilis); experiment: SEC; Superdex 75 10/300 GL, 20 mM Tris-HCl pH 8.0 with 300 mM NaCl, 0.6 mL/min; size markers ovalbumin (43 kDa) and IgG (158 kDa)
# [8] = target: MotS_(68–242)(D70A/E75A) (Bacillus subtilis); experiment: as above
substance,measurement,setting,value
MotS_(68–242)(E75A) (domain or fragment),stoichiometry N,[1],2
"Bs-MotS_(68–242), periplasmic fragment of the stator B-subunit MotS from Bacillus subtilis (domain or fragment)",stoichiometry N,[2],2
same,stoichiometry N,[3],2
same,stoichiometry N,[4],2
same,stoichiometry N,[5],2
same,stoichiometry N,[6],2
MotS_(68–242)(D70A) (domain or fragment),stoichiometry N,[7],2
MotS_(68–242)(D70A/E75A) (domain or fragment),stoichiometry N,[8],2
